These are literature values, as cited in doi:10.1101/429795.

The data set addresses Cys164 (UniProt position 164, MYQQGCFAGGT). In words: chemical modification.

As for “Chalcone synthase (MsCHS; CHS2) (Medicago sativa)”, the pKa is reported as 5.5.
